In general, stoichiometry N refers to a count of units in the complex or per binding partner.

For this assay, the target named is T1, mouse TMEM16A(ac) isoform (mouse), Q8BHY3.
T1 chain: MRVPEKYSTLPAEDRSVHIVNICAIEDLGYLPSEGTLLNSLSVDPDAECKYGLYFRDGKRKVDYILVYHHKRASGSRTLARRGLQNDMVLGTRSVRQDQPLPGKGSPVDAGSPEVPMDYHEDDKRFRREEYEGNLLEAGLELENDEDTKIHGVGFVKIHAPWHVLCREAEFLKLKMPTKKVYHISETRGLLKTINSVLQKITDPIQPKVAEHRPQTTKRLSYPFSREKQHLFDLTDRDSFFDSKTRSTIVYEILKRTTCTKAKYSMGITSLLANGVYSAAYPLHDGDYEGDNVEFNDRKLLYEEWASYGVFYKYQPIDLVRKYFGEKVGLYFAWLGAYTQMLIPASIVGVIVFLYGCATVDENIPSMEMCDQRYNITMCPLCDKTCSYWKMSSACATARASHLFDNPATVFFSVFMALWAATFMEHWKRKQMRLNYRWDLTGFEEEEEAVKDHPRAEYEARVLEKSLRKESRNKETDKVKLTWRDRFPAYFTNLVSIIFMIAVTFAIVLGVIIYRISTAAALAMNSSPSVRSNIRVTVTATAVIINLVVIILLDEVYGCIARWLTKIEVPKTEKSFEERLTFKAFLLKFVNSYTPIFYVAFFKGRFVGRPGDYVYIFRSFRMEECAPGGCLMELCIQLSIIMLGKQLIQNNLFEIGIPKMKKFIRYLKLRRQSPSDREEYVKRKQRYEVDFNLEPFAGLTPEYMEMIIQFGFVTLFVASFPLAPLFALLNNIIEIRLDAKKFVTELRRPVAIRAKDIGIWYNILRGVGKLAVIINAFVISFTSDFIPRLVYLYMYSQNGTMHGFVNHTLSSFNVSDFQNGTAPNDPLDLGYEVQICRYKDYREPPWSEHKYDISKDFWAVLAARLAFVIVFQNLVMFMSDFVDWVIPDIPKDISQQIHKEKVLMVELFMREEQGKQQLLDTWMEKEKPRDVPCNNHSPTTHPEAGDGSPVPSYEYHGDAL
In words: cryo-EM structure; purified mTMEM16A at 3 mg/ml in 0.12% digitonin, 20 mM HEPES pH 7.5, 150 mM NaCl, 0.5 mM CaCl2; single particle reconstruction with C2 symmetry imposed, 6.6 Å; poly-alanine model. To be noted: remark: other sources report otherwise.

B1: mouse TMEM16A(ac) isoform, Q8BHY3 1-960 (natural protein)
chain: T1 chain
B1 displayed a stoichiometry N of 2.

These data come from publication PMC5470873.
